Experimental data taken from patent publication US20200140815A1 (CRISPR THERAPEUTICS, published 2020).

Assays:
murine PTK7 = target: T1, murine PTK7 (murine, UniProt Q8BKG3 23-1062); assay: flow cytometry dose titration (200 nM-0.0032 nM) on murine 3T3L1 and M158 cells; secondary APC-conjugated human IgG-Fc antibody
T1 construct: whole, on cells; also called mouse antigen; PTK7 on murine 3T3L1 and M158 cells
T1 sequence (looked up): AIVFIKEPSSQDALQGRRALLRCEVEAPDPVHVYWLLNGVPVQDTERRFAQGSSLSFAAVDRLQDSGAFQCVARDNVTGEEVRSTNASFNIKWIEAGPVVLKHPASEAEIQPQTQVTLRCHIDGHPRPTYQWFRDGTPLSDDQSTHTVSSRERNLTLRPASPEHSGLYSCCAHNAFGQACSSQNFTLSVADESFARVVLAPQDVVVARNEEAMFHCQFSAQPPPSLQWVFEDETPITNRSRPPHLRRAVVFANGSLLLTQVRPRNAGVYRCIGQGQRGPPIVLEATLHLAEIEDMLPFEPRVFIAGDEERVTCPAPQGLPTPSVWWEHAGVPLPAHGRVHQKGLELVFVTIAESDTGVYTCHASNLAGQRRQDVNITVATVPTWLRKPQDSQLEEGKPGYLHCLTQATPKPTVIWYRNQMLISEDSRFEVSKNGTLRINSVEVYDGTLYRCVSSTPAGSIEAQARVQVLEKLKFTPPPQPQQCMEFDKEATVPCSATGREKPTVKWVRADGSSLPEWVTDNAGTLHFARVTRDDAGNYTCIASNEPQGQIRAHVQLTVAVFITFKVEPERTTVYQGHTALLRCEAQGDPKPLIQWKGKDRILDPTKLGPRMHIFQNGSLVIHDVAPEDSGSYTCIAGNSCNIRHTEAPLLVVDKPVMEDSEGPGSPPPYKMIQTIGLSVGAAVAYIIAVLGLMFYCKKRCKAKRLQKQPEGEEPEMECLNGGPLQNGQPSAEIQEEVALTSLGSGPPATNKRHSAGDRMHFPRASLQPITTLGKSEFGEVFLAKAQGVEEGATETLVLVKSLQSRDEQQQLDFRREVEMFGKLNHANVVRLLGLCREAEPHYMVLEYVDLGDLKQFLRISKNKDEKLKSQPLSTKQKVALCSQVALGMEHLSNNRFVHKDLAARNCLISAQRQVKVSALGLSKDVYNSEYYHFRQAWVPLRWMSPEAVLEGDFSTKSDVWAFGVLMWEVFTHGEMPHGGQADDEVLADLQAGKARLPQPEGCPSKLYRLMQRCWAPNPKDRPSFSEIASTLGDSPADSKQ
Description: (§1) To evaluate the species cross reactivity of the custom CTX181 antibody, its binding affinity was assessed in murine 3T3L1 fibroblast and murine M158 breast cancer cell lines and compared to its binding affinity in human Saos2 (osteosarcoma), A498 (renal carcinoma) and HCC70 (breast cancer) cell lines. For each cell line, a dose titration binding assay (200 nM-0.0032 nM final CTX181 antibody) was run on 2×10⁶ cells at each concentration. Cells were stained 30 min on ice with CTX181 antibody, followed by washing and 15 min stain at RT with secondary APC fluorophore conjugated human IgG-Fc antibody. Cells were assessed for staining on a Novocyte flow cytometer (Acea Biosciences).

[1] = target: T2, human protein tyrosine kinase 7 (PTK7) (human, UniProt Q13308 31-1070); assay: flow cytometry dose titration (200 nM-0.0032 nM) on human Saos2, A498 and HCC70 cells; secondary APC-conjugated human IgG-Fc antibody
T2 construct: whole, on cells; also called humPTK7; colon carcinoma kinase 4 (CCK4)
T2 sequence (looked up): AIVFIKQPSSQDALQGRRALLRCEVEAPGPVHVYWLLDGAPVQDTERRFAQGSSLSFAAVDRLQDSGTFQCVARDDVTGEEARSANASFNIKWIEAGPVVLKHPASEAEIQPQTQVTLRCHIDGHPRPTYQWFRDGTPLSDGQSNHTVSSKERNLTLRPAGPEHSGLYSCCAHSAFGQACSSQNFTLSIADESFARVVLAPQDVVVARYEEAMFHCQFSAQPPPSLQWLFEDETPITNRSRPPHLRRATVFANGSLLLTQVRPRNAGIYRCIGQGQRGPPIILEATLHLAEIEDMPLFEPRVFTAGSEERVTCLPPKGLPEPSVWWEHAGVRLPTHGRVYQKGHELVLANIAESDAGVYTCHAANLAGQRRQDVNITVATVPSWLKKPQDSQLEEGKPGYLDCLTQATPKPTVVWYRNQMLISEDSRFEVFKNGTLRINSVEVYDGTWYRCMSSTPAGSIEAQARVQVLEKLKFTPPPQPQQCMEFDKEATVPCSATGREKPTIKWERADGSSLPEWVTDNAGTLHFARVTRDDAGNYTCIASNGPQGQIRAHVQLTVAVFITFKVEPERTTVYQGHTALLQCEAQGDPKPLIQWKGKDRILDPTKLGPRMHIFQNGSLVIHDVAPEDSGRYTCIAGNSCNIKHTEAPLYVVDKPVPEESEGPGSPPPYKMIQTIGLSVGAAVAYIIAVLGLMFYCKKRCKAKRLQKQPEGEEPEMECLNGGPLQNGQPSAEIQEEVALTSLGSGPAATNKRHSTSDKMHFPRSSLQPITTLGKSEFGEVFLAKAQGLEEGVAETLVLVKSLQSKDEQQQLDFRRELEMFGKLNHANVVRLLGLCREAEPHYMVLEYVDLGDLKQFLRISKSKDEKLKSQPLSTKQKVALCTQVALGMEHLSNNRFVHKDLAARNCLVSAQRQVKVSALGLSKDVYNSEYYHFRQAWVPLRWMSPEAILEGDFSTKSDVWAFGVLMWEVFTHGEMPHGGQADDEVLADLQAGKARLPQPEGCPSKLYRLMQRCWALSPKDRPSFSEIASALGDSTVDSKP
Description: as §1

binding result (murine PTK7): binds
B1: CTX181 mAb (custom recombinant monoclonal anti-PTK7 antibody, Creative Biolabs) (antibody, human IgG1, kappa, V domains shown)
VH: QVQLVESGGGVVQPGRSLRLSCAASGFTFSSYGMHWVRQAPGKGLEWVAVIWDDGSNKYYVDSVKGRFTISRDNSKNTLYLQMNSLRAEDTAVYYCARDDYYGSGSFNSYYGTDVWGQGTTVTVSS
VL: EIVLTQSPATLSLSPGERATLSCRASQSVSIYLAWYQQKPGQAPRLLIYDASNRATGIPARFSGSGSGTDFTLTISSLEPEDFAVYYCQQRSNWPPFTFGPGTKVDIKR
notes: Used biotinylated for immunohistochemistry; In flow cytometry it was detected with a secondary APC-conjugated human IgG-Fc antibody; also called CTX181 antibody; CTX181 Ab
binding result [1]: binds
